Measured values from paper PMC3901934, “CAS directly interacts with vinculin to control mechanosensing and focal adhesion dynamics” (Cellular and Molecular Life Sciences: CMLS, 2013).

Molecular target: T1, Vin WT GFP (GFP-fused vinculin WT) (UniProt Q64727 1-1066)
T1 sequence (looked up): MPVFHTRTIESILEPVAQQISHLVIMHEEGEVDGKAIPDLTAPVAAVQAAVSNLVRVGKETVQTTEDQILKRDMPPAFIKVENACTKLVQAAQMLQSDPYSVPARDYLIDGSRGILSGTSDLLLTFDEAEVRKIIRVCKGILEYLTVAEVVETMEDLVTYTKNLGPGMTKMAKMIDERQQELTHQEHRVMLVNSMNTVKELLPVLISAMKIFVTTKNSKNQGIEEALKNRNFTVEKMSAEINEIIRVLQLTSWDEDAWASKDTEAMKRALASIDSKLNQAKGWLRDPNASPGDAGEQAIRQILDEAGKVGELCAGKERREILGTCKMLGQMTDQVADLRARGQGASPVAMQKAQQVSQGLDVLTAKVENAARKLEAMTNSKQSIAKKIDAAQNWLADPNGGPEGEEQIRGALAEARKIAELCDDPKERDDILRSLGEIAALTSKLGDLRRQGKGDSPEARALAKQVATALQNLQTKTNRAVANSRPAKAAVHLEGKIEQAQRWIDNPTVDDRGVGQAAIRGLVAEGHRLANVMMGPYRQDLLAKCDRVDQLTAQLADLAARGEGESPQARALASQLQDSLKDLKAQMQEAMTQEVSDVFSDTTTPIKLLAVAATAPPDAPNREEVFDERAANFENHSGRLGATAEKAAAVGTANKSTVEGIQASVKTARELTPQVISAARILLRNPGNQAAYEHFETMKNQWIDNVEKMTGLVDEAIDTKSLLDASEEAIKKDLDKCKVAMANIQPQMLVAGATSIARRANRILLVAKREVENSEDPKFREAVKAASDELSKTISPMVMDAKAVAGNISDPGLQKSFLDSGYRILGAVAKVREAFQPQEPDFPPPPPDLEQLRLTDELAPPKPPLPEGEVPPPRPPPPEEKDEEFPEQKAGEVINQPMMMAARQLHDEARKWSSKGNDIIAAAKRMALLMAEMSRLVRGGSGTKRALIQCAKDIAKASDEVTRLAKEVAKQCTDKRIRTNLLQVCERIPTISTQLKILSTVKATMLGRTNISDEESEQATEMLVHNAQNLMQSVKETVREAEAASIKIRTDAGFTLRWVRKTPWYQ
Test: cell-based or functional assay

fold change of CAS Y410 phosphorylation after 20 % static stretch for 10 min, Vin-/- MEFs re-expressing WT vinculin: 2.4 fold
B1: full-length CAS (in Vin-/- MEFs) (natural protein, mouse (endogenous in MEFs), UniProt Q61140 1-874, looked up)
chain: MTVPNVLAKALYDNVAESPDELSFRKGDIMTVLERDTQGLDGWWLCSLHGRQGIVPGNRLKILVGMYDKKPVGPGPGPPATPPQPQPSLPQGVHAPVPPASQYSPMLPTAYQPQSDNVYLVPTPSKTQQGLYQAPGPNPQFQSPPAKQTSTFSKQTPHHSFPSPATDLYQVPPGPGSPAQDIYQVPPSAGIGHDIYQVPPSLDTRGWEGTKPPAKVVVPTRVGQGYVYEAAQTEQDEYDTPRHLLAPGPQDIYDVPPVRGLLPNQYGQEVYDTPPMAVKGPNGRDPLLDVYDVPPSVEKGLLSSSHHSVYDVPPSVSKDVPDGPLLREETYDVPPAFAKPKPFDPTRHPLILAAPPPDSPAAEDVYDVPPPAPDLYDVPPGLRRPGPGTLYDVPRERVLPPEVADGSVVDDGVYAVPPPAEREAPTDGKRLSASSTGSTRSSQSASSLEVVVPGREPLELEVAVESLARLQQGVSTTVAHLLDLVGSASGPGGWRGTSEPQEPPAQDLKAAVAAVHGAVHELLEFARGAVSNATHTSDRTLHAKLSRQLQKMEDVYQTLVVHGQVLDSGRGSPGFTPEDLDRLVACSRAVPEDAKQLASFLHGNASLLFRRTKAPGPGPEGSSSLHPNPTDKASSIQSRPLPSPPKFTSQDSPDGQYENSEGGWMEDYDYVHLQGKEEFEKTQKELLERGNIMRQGKGQLELQQLKQFERLEQEVSRPIDHDLANWTPAQPLVPGRTGGLGPSDRQLLLFYLEQCEANLTTLTDAVDAFFTAVATNQPPKIFVAHSKFVILSAHKLVFIGDTLSRQAKAADVRSQVTHYSNLLCDLLRGIVATTKAAALQYPSPSAAQDMVDRVKELGHSTQQFRRVLGQLAAA
